Test results: paper PMC3381609

B1: β-glycosidase (β-gly) (Saccharolobus solfataricus P2; W33G) (protein)
chain: MYSFPNSFRFGWSQAGFQSEMGTPGSEDPNTDGYKWVHDPENMAAGLVSGDLPENGPGYWGNYKTFHDNAQKMGLKIARLNVEWSRIFPNPLPRPQNFDESKQDVTEVEINENELKRLDEYANKDALNHYREIFKDLKSRGLYFILNMYHWPLPLWLHDPIRVRRGDFTGPSGWLSTRTVYEFARFSAYIAWKFDDLVDEYSTMNEPNVVGGLGYVGVKSGFPPGYLSFELSRRAMYNIIQAHARAYDGIKSVSKKPVGIIYANSSFQPLTDKDMEAVEMAENDNRWWFFDAIIRGEITRGNEKIVRDDLKGRLDWIGVNYYTRTVVKRTEKGYVSLGGYGHGCERNSVSLAGLPTSDFGWEFFPEGLYDVLTKYWNRYHLYMYVTENGIADDADYQRPYYLVSHVYQVHRAINSGADVRGYLHWSLADNYEWASGFSMRFGLLKVDYNTKRLYWRPSALVYREIATNGAITDEIEHLNSVPPVKPLRH
B2: β-glycosidase (β-gly) (Saccharolobus solfataricus P2) (protein)
chain: MYSFPNSFRFGWSQAGFQSEMGTPGSEDPNTDWYKWVHDPENMAAGLVSGDLPENGPGYWGNYKTFHDNAQKMGLKIARLNVEWSRIFPNPLPRPQNFDESKQDVTEVEINENELKRLDEYANKDALNHYREIFKDLKSRGLYFILNMYHWPLPLWLHDPIRVRRGDFTGPSGWLSTRTVYEFARFSAYIAWKFDDLVDEYSTMNEPNVVGGLGYVGVKSGFPPGYLSFELSRRAMYNIIQAHARAYDGIKSVSKKPVGIIYANSSFQPLTDKDMEAVEMAENDNRWWFFDAIIRGEITRGNEKIVRDDLKGRLDWIGVNYYTRTVVKRTEKGYVSLGGYGHGCERNSVSLAGLPTSDFGWEFFPEGLYDVLTKYWNRYHLYMYVTENGIADDADYQRPYYLVSHVYQVHRAINSGADVRGYLHWSLADNYEWASGFSMRFGLLKVDYNTKRLYWRPSALVYREIATNGAITDEIEHLNSVPPVKPLRH

Substrate: O=C1OC2(c3ccc(O[C@@H]4O[C@H](CO)[C@H](O)[C@H](O)[C@H]4O)cc3Oc3cc(O[C@@H]4O[C@H](CO)[C@H](O)[C@H](O)[C@H]4O)ccc32)c2ccccc21
Assay: purified protein
Assay type: biochemical, Saccharolobus solfataricus
Conditions: no indole, pH 6.5, 37 °C, 50 mM sodium phosphate, 5% DMSO

Protein | Km [µM] | kcat [s⁻¹]
B1 | 1080 ± 30 | 0.00675 ± 0.00004
B2 | 58 ± 4 | 0.265 ± 0.002
